Positions count from the first letter of the chain named. Where no end group is shown, it is not given here. The star is where a group is joined. Biotin = O=C1N[C@H]2[C@H](CS[C@H]2CCCCC(=O)*)N1; Ahx = NCCCCCC(=O)O

B1: hACI-7067-1101C8-Ab2_H5L1 (antibody, V domains shown)
VH: EVQLVESGGGLVQPGGSLKLSCAASGFSFNIYAMNWVRQAPGKGLEWVGRIRSKSNAYATYYAASVKGRFTISRDDSKNTLYLQMNNLKTEDTAVYYCTRVGLRFYAMDYWGQGTLVTVSS
VL: DVVMTQSPLSLPVTLGQPASISCRSSQSIVHSNANTYLEWYQQRPGQSPRLLIYKVSNRFSGVPDRFSGSGSGTDFTLKISRVEAEDLGVYYCFQGSQGPLTFGQGTKLEIK
notes: VH on human IgG1 constant, VL on human kappa constant
B2: hACI-7067-1101C8-Ab2_H8L1 (antibody, V domains shown)
VH: B1 VH with M108L
VL: B1 VL
notes: as for B1
B3: hACI-7067-1101C8-Ab2_H10L1 (antibody, V domains shown)
VH: B1 VH with S28T, M108L
VL: B1 VL
notes: as for B1
B4: hACI-7067-1101C8-Ab2_H9L1 (antibody, V domains shown)
VH: B1 VH with S28T
VL: B1 VL
notes: as for B1
B5: hACI-7067-1101C8-Ab2_H9L2 (antibody, V domains shown)
VH: B1 VH with S28T
VL: B1 VL with I29L
notes: as for B1
B6: hACI-7067-1101C8-Ab2_H11L1 (antibody, V domains shown)
VH: B1 VH with S28T, L81A
VL: B1 VL
notes: as for B1
B7: hACI-7067-1101C8-Ab2_H12L1 (antibody, V domains shown)
VH: B1 VH with S28T, L81A, M108L
VL: B1 VL
notes: as for B1
B8: hACI-7067-1101C8-Ab2_H12L2 (antibody, V domains shown)
VH: B1 VH with S28T, L81A, M108L
VL: B1 VL with I29L
notes: as for B1
B9: hACI-7067-1101C8-Ab2_H10L2 (antibody, V domains shown)
VH: B1 VH with S28T, M108L
VL: B1 VL with I29L
notes: as for B1
B10: hACI-7067-1101C8-Ab2_H11L2 (antibody, V domains shown)
VH: B1 VH with S28T, L81A
VL: B1 VL with I29L
notes: as for B1
B11: ACI-8033-1F8-Ab1 (antibody, V domains shown)
VH: DVQLQESGPGLVKPSQSLSLTCSVTGYSITSGFYWNWIRQFPGNKLEWMGYISYDGSNNYNPSLKNRISIIRDTSKNQFFLKLKSVTSEDTATYYCVRGDVDWGQGTTLTVSS
VL: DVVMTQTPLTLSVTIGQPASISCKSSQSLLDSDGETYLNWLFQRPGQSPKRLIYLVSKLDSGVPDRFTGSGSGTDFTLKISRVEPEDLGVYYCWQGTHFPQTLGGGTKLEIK
notes: mouse hybridoma mAb; also called 917.1F8D8E4
B12: ACI-8033-25A3-Ab1 (antibody, V domains shown)
VH: EVQLVESGGGLVQPKGSLKLSCAASGFSFNTYAMNWVRQAPGKGLEWVARIRSKSNNFATYYADSVKDRFTISRDESESMLYLQMNNLKTEDTAMYYCVRSFDYWGQGTTLTVSS
VL: DIKMTQSPSSMYASLGERVTITCKASQDINSYLSWFQQKPGKSPKTLIYRAKRLVDGVPSRFSGSGSGQDYSLTISSLEYEDMGIYYCLQYDEFPFTFGSGTKLEIK
notes: mouse hybridoma mAb; also called 917.25A3E9F6
B13: ACI-7067-1113D10-Ab1 (antibody, V domains shown)
VH: EVQLVESGGGLVQPKGSLKLSCAASGFTFNTYALHWVRQAPGKGLEWVARIRSKSSNYATYYADSVKDRFTISRDDSQSMLYLQMNNLKTEDTGMYYCVRGGVSPFDYWGQGTTLTVSS
VL: QIVLTQSPAIMSASPGEKVTMTCSASSSVSYMHWYQQKSGTSPKRWIYDTSKLASGVPARFSGSGSGTSYSLTISSMEAEDSATYYCQQWSNNPPTFGGGTKLEIK
B14: ACI-7067-1101C8-Ab2 (antibody, V domains shown)
VH: EVQLVESGGGLVQPKGSLKLSCAASGFSFNIYAMNWVRQAPGKGLEWVARIRSKSNNYATYYADSVKDRFTISRADSESMLYLQMNNLKTEDTAMYYCVRVGLRFYAMDYWGQGTSVTVSS
VL: DVLMTQTPLSLPVSLGDQASISCRSSQSIVHSNGNTYLEWYLQKPGQSPKLLIYKVSNRFSGVPDRFSGSGSGTDFTLKISRVEAEDLGVYYCFQGSQGPLTFGAGTKLELK
B15: ACI-7067-1108B11-Ab2 (antibody, V domains shown)
VH: EVQLVESGGGLVQPKGSLKLSCAASGFTFNTYAMHWVRQAPGKGLEWVARIRSKGSNYATNYADSVKDRFTISRDDSQSMLYLQMNNLKTEDTAMYYCVRGHGSSYFSYWGQGTLVTVSA
VL: QIVLTQSPAIMSASPGERITMTCSANSSVTYMHWYQQKSGTSPKRWIYDTSNLASGVPARFSGSGSGTSYSLTISSMEAEDAATYYCQQWKSHPPTFGAGTKLELK
B16: hACI-7067-1101C8-Ab2_H6L1 (antibody, V domains shown)
VH: B1 VH with G49A, T99V, M108S
VL: B1 VL
notes: as for B1
B17: hACI-7067-1101C8-Ab2_H5L4 (antibody, V domains shown)
VH: B1 VH
VL: B1 VL with I29L, Y41F
notes: as for B1

One test deals with T1, human full-length alpha-synuclein (human, UniProt P37840 1-140). The test is described as follows: SPR, mAb captured, steady-state fit.
Protocol: (§1) Non-covalent immobilization of alpha-synuclein antibodies was performed using a target immobilization method of 200 response units (RU). […] Binding affinity of alpha-synuclein antibodies to monomeric or fibrillar alpha-synuclein species was performed using a single-cycle kinetics method. […] A dissociation phase of 900 sec followed the final 50 nM injection. Regeneration of the sensor to the goat anti-human antibody layer was achieved using 3 regenerations of 10 mM Glycine pH 1.7. […] Regeneration of the sensor to the goat anti-human antibody layer was achieved using 3 regenerations of 10 mM Glycine pH 1.7. Results obtained from single-cycle kinetics were evaluated by Biacore K8 evaluation software with 1:1 binding homogenous Langmuir model (with a global Rmax) with Cycle 5 as a blank subtraction. The following kinetic parameters were obtained: on-rate (ka), off-rate (kd), affinity constant (KD, ratio of kd by ka), maximum response (Rmax), and goodness of fit (Chi2).
(§2) Kinetic constants were determined from 1:1 homogenous binding models for binding versus the aggregated form, while a steady state fit was used to determine KD values versus the monomeric form of alpha-synuclein.
With B1, binding was characterised by a dissociation constant (Kd) of 20.1 nM.
The molecule B2 showed a dissociation constant Kd of 40 nM.
Take B3: the Kd amounted to 48.2 nM.
On the same count and under the same terms, as for B4, the figure is 18.2 nM; as for B5, 66.9 nM.
Molecule B6 displayed a Kd of 48 nM.
Still for that read-out and setting: as for B7, the figure is 64.4 nM; as for B8, 28.7 nM; as for B9, 35.1 nM.
Regarding B10, the equilibrium dissociation constant (Kd) amounted to 80.1 nM.

Another test concerns the target T2, 91-105aa.
T2 construct: also called alpha-synuclein peptide 91-105
T2 peptide: {Biotin-Ahx}-ATGFVKKDQLGKNEE
The test is described as follows: 15-mer peptide ELISA.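 Further: indirect ELISA of hybridoma supernatant antibodies (1/100, 1 h) binding immobilized 15-mer peptides spanning human alpha-synuclein 1-140 on streptavidin plates, read as optical density.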
Protocol: (§3) Epitope mapping for the antibodies derived from stable hybridoma clones was determined using an indirect ELISA on a library of 15-mer peptides covering the entire sequence of human alpha-synuclein from 1 to 140aa. […] Results are expressed as optical density (O.D.). Each bar represents data for an individual antibody.
(§4) Serum-free supernatants were harvested from stable hybridomas. The supernatants containing antibodies of interest were then screened by an indirect ELISA assay to determine epitopes. Epitopes were first determined using a library of 15-mer peptides covering the entire sequence of human alpha-synuclein protein, spanning amino acids (aa) 1-140 with 9aa offset and 6aa overlap. […] Briefly, streptavidin-coated ELISA plates were blocked overnight at 4° C. […] Plates were washed with PBS/0.05% Tween® 20 and then incubated with the hybridoma supernatants at 1/100 dilution for 1 hour at 25° C. […] After final wash, plates were incubated 2 hours at 25° C. with alkaline phosphatase substrate (p-nitrophenyl phosphate disodium hexahydrate; pNPP, S0942, Sigma) and read the absorbance optical density (O.D.) signal at 405 nm using an ELISA plate reader (Tecan, Switzerland).
Turning to B11, the binding result is on record as “no binding (tested: supernatant 1/100)”.
On the same count and under the same terms, as for B12, the entry is “no binding (tested: supernatant 1/100)”.

In another test the target is T3, 82-96aa.
T3 construct: also called alpha-synuclein peptide 82-96
T3 peptide: {Biotin-Ahx}-VEGAGSIAAATGFVK
Put plainly: 15-mer peptide ELISA.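 Further: indirect ELISA of hybridoma supernatant antibodies (1/100, 1 h) binding immobilized 15-mer peptides spanning human alpha-synuclein 1-140 on streptavidin plates, read as optical density.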
Protocol: as §3, §4
Take B12: the binding result was “no binding (tested: supernatant 1/100)”.

A further test concerns the target T4, 109-123aa.
T4 peptide: {Biotin-Ahx}-QEGILEDMPVDPDNE
The test is described as follows: 15-mer peptide ELISA.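 Further: indirect ELISA of hybridoma supernatant antibodies (1/100, 1 h) binding immobilized 15-mer peptides spanning human alpha-synuclein 1-140 on streptavidin plates, read as optical density.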
Protocol: as §3, §4
In the case of B11, the binding result was “no binding (tested: supernatant 1/100)”.
On the same count and under the same terms, as for B12, the entry is “no binding (tested: supernatant 1/100)”.

A further test has as its target T5, 100-114aa.
T5 peptide: {Biotin-Ahx}-LGKNEEGAPQEGILE
Put plainly: 15-mer peptide ELISA.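 Further: indirect ELISA of hybridoma supernatant antibodies (1/100, 1 h) binding immobilized 15-mer peptides spanning human alpha-synuclein 1-140 on streptavidin plates, read as optical density.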
Protocol: as §3, §4
Consider B11, for which the binding result is reported as “no binding (tested: supernatant 1/100)”.
Still for that read-out and setting: in the case of B12 it was “no binding (tested: supernatant 1/100)”.

The target in the next test is T6, alpha-synuclein fibrils (Homo sapiens (Human), UniProt P37840 1-140). The test is described as follows: cell-based or functional assay.
As to B13, the “IC50, de novo alpha-synuclein aggregates formed in seeded mouse primary cortical neurons” value came to 702 nM and the “IC50, de novo alpha-synuclein aggregates formed in the seeded in vitro cellular model” value is 39.6 nM.
For B14 the same measures were 114 nM and 3.3 nM.
For B15, in that order: 143 nM and 4.5 nM.

In a further test the target is T6, alpha-synuclein fibrils. Put plainly: SPR, mAb captured, 1:1 model.
Protocol: as §1, §2
B1 registered a Kd of 1 nM, a koff of 2.18e-05 s⁻¹ and a kon of 22000 M⁻¹ s⁻¹.
For B2 the same measures were 2 nM, 3.6e-05 s⁻¹ and 17600 M⁻¹ s⁻¹.
Regarding B3, the kon came out at 11500 M⁻¹ s⁻¹.
B4 displayed a Kd of 0.9 nM, an off-rate constant (koff) of 2.25e-05 s⁻¹ and a kon of 23900 M⁻¹ s⁻¹.
For B8, the dissociation constant (Kd) turned out to be 13.7 nM, the koff came out at 0.000142 s⁻¹ and the kon turned out to be 10400 M⁻¹ s⁻¹.

The target of a further test is T6, alpha-synuclein fibrils. The test is described as follows: SPR, 450 nM aggregates, relative to chimeric.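 Further: surface plasmon resonance with anti-human Fc capture, human IgG1 isotype control channel and buffer run subtracted, dissociation rates fitted by 1:1 or heterogeneous ligand binding model.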
Protocol: (§5) Flow channels (Fc) 1-8 were activated with a fresh solution of EDC/NHS (Amine Coupling Kit, 1:1 ratio of both reagents, GE Healthcare Life Sciences, BR100050). […] The chip was deactivated by 1 M ethanolamine-HCl (GE Healthcare Life Sciences, BR100050) at a flow rate of 10 μL/min for 420 s.
(§6) A human IgG1 isotype control diluted in running buffer 1×HBS-EP+ (GE Healthcare Life Sciences, BR100669) was captured onto Fc1 via anti-human Fc IgG at a flow rate of 10 μL/min. […] 10 mM glycine pH 1.5 as regeneration buffer was injected following every dissociation phase.
(§7) The data for reference channel Fc1 and buffer channel were subtracted to generate the sensorgrams. The experimental data was fitted by 1:1 binding model or heterogeneous ligand model.
For the molecule B1, the Relative koff worked out at 1.5.
In turn, B16 returned a Relative koff of 1.
As to B2, the Relative koff was 1.1.
On the same count and under the same terms, as for B3, the figure is 1.7.
On to B17, for which the Relative koff amounted to 0.2.
On the same count and under the same terms, in the case of B4 it was 5.5.
The same measure, in the same setting: in the case of B5 it was 2.3.
On the same count and under the same terms, as for B6, the figure is 62; as for B7, 1; as for B8, 0.3.
In turn, B9 registered a Relative koff of 0.8.
Same read-out and setting: as for B10, the figure is 5.4.

The target in a further test is T1, human full-length alpha-synuclein. Put plainly: SPR, 100 nM monomer, relative to chimeric.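 Further: SPR with antibody variants captured via anti-human Fc IgG on an amine-coupled chip, isotype IgG1 reference channel subtracted, dissociation rate fitted by 1:1 or heterogeneous ligand model.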
Protocol: as §5, §6, §7
In turn, B1 displayed a Relative koff of 1.1.
Same read-out and setting: in the case of B16 it was 0.3; in that of B2, 0.2; in that of B3, 0.2.
The same measure, in the same setting: as for B17, the figure is 0.1.
Same read-out and setting: as for B4, the figure is 1.3; as for B5, 0.8; as for B6, 0.8.
B7 yielded a Relative koff of 0.2.
Same read-out and setting: as for B8, the figure is 0.1.
For B9, the Relative koff came out at 0.2.
Same read-out and setting: in the case of B10 it was 0.8.
